Target: FGFR1c and βKlotho receptor complex on membrane vesicles of CHO cells overexpressing both (human) (UniProt Q86Z14)
Experiment: cryo-EM and cryo-ET of a gold-nanoparticle-labelled ligand on membrane vesicles; membrane preparations (~5 mg/ml) incubated with AuE38C-FGF21 (0.03 mg/ml) on ice for 30 min, washed with 1X PBS three times, plunge-frozen; AuNPs and AuNP pairs counted in tomograms

Chain of UniProt Q86Z14 (Q86Z14 whole entry, chain 1 of 2): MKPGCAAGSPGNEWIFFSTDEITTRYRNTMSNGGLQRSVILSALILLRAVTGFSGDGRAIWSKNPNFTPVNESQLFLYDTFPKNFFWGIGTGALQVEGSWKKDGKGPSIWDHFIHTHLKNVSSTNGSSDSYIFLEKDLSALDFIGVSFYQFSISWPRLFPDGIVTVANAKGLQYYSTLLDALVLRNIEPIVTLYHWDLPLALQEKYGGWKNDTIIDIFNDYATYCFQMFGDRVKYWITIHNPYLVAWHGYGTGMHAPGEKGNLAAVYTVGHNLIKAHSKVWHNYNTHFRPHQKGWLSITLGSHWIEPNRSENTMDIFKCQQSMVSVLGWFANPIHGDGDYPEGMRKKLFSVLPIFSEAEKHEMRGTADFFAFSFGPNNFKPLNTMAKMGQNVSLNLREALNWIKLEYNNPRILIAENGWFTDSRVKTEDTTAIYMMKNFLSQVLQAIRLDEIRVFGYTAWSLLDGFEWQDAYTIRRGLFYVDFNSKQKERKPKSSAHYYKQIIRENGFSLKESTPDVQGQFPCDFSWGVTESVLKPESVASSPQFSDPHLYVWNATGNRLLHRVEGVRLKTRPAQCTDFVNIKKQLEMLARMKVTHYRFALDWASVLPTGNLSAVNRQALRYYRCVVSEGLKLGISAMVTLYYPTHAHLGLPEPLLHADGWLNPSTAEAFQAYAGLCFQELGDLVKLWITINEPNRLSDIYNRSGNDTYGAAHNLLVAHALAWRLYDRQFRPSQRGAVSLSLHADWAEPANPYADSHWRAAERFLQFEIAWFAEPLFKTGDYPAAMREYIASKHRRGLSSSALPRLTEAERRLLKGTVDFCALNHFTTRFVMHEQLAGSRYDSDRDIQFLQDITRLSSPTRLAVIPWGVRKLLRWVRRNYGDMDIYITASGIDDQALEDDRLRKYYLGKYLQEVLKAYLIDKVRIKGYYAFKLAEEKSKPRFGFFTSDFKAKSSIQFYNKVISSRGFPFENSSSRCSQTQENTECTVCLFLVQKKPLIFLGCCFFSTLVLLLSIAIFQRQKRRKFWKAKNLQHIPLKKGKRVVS
Chain of UniProt Q86Z14 (P11362 22-822, chain 2 of 2, further chain): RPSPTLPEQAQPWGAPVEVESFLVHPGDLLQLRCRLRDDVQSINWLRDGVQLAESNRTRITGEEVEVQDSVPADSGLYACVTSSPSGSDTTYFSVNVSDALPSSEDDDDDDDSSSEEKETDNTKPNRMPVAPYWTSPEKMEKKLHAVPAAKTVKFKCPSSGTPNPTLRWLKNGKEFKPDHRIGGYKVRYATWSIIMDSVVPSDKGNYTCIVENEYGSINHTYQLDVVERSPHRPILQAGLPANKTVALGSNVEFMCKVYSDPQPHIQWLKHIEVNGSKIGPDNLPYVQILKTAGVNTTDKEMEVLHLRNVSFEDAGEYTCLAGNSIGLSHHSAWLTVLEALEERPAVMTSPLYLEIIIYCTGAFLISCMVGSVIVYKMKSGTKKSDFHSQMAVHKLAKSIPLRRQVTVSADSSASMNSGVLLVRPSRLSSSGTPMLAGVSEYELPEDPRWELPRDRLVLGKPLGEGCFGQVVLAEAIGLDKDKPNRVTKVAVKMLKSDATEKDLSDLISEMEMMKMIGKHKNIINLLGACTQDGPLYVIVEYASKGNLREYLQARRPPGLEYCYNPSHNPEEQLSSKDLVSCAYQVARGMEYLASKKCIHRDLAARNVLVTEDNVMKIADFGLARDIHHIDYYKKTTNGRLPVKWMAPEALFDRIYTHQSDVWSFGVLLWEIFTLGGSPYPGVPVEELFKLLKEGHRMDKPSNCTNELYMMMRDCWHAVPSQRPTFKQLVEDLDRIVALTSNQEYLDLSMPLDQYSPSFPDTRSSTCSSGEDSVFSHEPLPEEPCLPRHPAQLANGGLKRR

Which results are given for “AuNP-FGF21 (E38C-FGF21 conjugated with a 144-gold atom nanoparticle) (ligand)”?
percent of AuNPs in true pairs: 85%; stoichiometry N (copies of FGF21 in the receptor complex): 2
